Source: the nanobody polyreactivity screen of Harvey et al. (2022)

Experiment: yeast display, Sf9 membrane polyspecificity reagent, FACS + sequencing; frameworks hold sequencing errors
Summary of the method: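 Synthetic nanobody libraries on Saccharomyces cerevisiae BJ5465 were galactose-induced for 36–48 hours, stained 1 hour at 4 °C with 10% biotinylated, detergent-solubilized Sf9 membrane reagent and enriched on streptavidin microbeads. FACS then separated cells into low and high (top ~1%) gates by anti-HA (expression) and streptavidin (reagent binding) fluorescence. Genes were colony-PCR amplified, MiSeq 2 × 250 sequenced and CDR-length filtered. A clone's polyreactivity label is that of its gate of origin.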

Sequence | polyreactivity (PSR sort gate)
QVQLVESGGGLVQAGGSLRLSCAASGSTFTGYAMGWYRQAPGKERELVAAISISGGRTFYADSVKGRFTISRDNAKNTVYLQKNSLKPEDTAVSYCAASLRGSKYSFDYWGQGTQVTVSS | high polyreactivity
QVQLVESGGGLVQAGGSLRLSCAASGSTFTGYDMGWYRQAPGKERELVAAISISGGRTFYADSVKGRFTISRDNAKNTVYLQMNSLKPEDTAVYYCAAYQRGSKYSFDYWGQGTQVTVSS | high polyreactivity
QVQLVESGGGLVQAGGSLRLSCAASGSTFTGYTMGWYRQAPGKERELVAAISRRGTSTYYADSVKGRFTISRDNAKNSVYLQMNSLKPEDTAVYYCADYQGQKGYDYWGQGTQVTVSS | high polyreactivity
QVQLVESGGGLVQAGGSLRLSCAASGSTFTGYTMGWYRQAPGKERELVAAISRRGTSTYYADSVKGRFTISRDNAKNTVYLQMNSLKPEDTAVYYCAAYQGQKGYDYWGQGTQVTVSS | high polyreactivity
QVQLVESGGGLVQAGGSLRLSCAASGSTFTGYVLGWYRQAPGKERELVAAITSSVDGTYYADSVKGRFTISRDIAKNTVYLQMNSLKPEDTAVYYCAADLWKGVYPSYDYWGQGTQVTVSS | low polyreactivity
QVQLVESGGGLVQAGGSLRLSCAASGSTFTGYVMGWYRQAPGKERELVAAITSSVDGTYYADSVKGRFTISRDNAKNTVYLQMNSLKPEDTAVYDCAADLWKGVYPSYDYWGQGTQVTVSS | low polyreactivity
QVQLVESGGGLVQAGGSLRLSCAASGSTFTINVMGWYRQAPGKERELVAAIHGGGRPNYADSVKGRFTISRDNAKKTVYLQMNSLKPEDTAVYYCAADGLSNVRQMDYWGQGTQVTVSS | low polyreactivity
QVQLVESGGGLVQAGGSLRLSCAASGSTFTKYDMGWYRQAPGKERELVAAIRSGGDTNYADSVKGRFTISRDNAKNTVYLQMNSLKPEDTAVYYCAAERGPTNHTSYPWYEYHYWGQGTQVTVSS | low polyreactivity
QVQLVESGGGLVQAGGSLRLSCAASGSTFTLNAMGWYRQAPGKECELVADISWSSGRTYYADSVKGRFTISRDNAKNTVYLHMNSLKPEDTAVYYCATDDFWNVKFYAYYPEFDYWGQGTQVTVSS | low polyreactivity
QVQLVESGGGLVQAGGSLRLSCAASGSTFTLNAMGWYRQAPGKERELVARISSGGGSTYYADSVNGRFTISRDNAKNTVYLQMNSLKPEDTAVYYCNAGNYRDKSYYWGQGTQVTVSS | low polyreactivity
QVQLVESGGGLVQAGGSLRLSCAASGSTFTLYAMGWYRQAPGKERELVAAISWSGDTTYYADSVKGRFTISRDNAKNTVYLQMNSLKPEDTAVYYCAADWYTSYYYEHESWGQGTQVTVSS | high polyreactivity
QVQLVESGGGLVQAGGSLRLSCAASGSTFTLYAMGWYRQAPGKERELVAAITWRGGSTFYADSVKGRFTISRDNAKNTVYLQMNSLKPEDTAVYYCAADYYSYVVGRIDYWGQGTQVTVSS | high polyreactivity
QVQLVESGGGLVQAGGSLRLSCAASGSTFTLYAMGWYRQAPGKERELVATITGSGGSTNYADSVKGRFTISRDNAKNTVDLQMNSLKPEDTAVYYCAKRVQQSTWYGYGIGYEYWGQGTQVTVSS | high polyreactivity
QVQLVESGGGLVQAGGSLRLSCAASGSTFTNNGMGWYRQAPGKERELVATISWDGDSTYYADSVKGRFTISRDNAKNTVYLQMISQKPEDTAVYYCAADEWGSDSALNFEYWGQGTQVTVSS | low polyreactivity
QVQLVESGGGLVQAGGSLRLSCAASGSTFTNYAMGWYRQAPGKERELVAAISSSGGRTYYADSVKGRFTISRDNAKNTVYLQMNSLKPEDTAVYYCARVVRPSVGDYWGQGTQVTVSS | high polyreactivity
QVQLVESGGGLVQAGGSLRLSCAASGSTFTNYAMGWYRQAPGKERELVAGISRSGGTTYYADSVKGRFTISRDNVKNTVYLQMNSLKPEDTAVYYCAAVGYFGGYRYDYWGQGTQVTVSS | high polyreactivity
QVQLVESGGGLVQAGGSLRLSCAASGSTFTPNAMGWYRQAPGKERELVAAINWSDSSTYYADSVKGRFTISRDNAKNTVYLQMNSLKPEDTAVYFCAAAAQYGQLQVPVYYWGQGTQVTVSS | low polyreactivity
QVQLVESGGGLVQAGGSLRLSCAASGSTFTPNAMGWYRQAPGKERELVAASRYTGVGTYYADSVKGRFTISRDNAKNTVYLQMNSPKPEDTAVYYCNRVSRYYNYDYWGQGTQVTVSS | high polyreactivity
QVQLVESGGGLVQAGGSLRLSCAASGSTFTPNVMGWSRQAPGKERELVAAINSSGGSTFYADSVKGRFTISRDNAKNTVYLQMNSLKPEDTAVYYCAASWHTPTVYDEYYYWGQGTQVTVSS | low polyreactivity
QVQLVESGGGLVQAGGSLRLSCAASGSTFTPYAMGWNRQAPGKERELVAAIRRGGSTNYADSVKGRFTISRDNEKNTVYLQMNSLKPEDTAVYYCAATKRRFVKFDYWGQGTQVTVSS | low polyreactivity
QVQLVESGGGLVQAGGSLRLSCAASGSTFTQYVMGWYRQAPGKERELVAAISDSGSTYYADSVKGRFTISRDNAKNTVYLQMNSLKPEDTAVYYCNADDVDFYYGYGYLEYDYWGQGTQVTVSS | low polyreactivity
QVQLVESGGGLVQAGGSLRLSCAASGSTFTRNAMGWYRQAPGKERELVAAISSSGGRTYYADSVKGRFTISRDNAKNTVYLQMNSLKPEDTAVYYCAAGIRTSAGYDYWGQGTQVTVSS | high polyreactivity

Sequence | polyreactivity (PSR sort gate)
QVQLVESGGGLVQAGGSLRLSCAASGSTFTRNAMGWYRQAPGKERELVAVISSRGGRTYYADSVKGRFTISRDNAKNTVYLQMNSLKPEDTAVYYCAARTWVLYTWRSYYEYYYWGQGTQVTVSS | high polyreactivity
QVQLVESGGGLVQAGGSLRLSCAASGSTFTRYAMGWYRQAPGKERELVAAITRSGGGTYYADSVKGRFTSSRDNAKNTVYLQLNSLKPEDTAVYYCAKDIVFYGSPGYGYWGQGTQVTVSS | high polyreactivity
QVQLVESGGGLVQAGGSLRLSCAASGSTFTRYDMGGYRHAPGKERELVAAISKSGGSTYYADSVKGRFTISRDNAKNTVYLQMNSLKPEDTAVYYCARGSTKYHIYSLDYWGQGTQVTVSS | low polyreactivity
QVQLVESGGGLVQAGGSLRLSCAASGSTFTRYGMGWYRQAPGKERELVAAITTSGSSTYYADSVKGRFTISRDNAKNTVYLQMNSLKPEDTAVYYCAADWSSWGFDYWGQGTQVTVSS | low polyreactivity
QVQLVESGGGLVQAGGSLRLSCAASGSTFTSNTRWYRQAPGKERELVAAISNRGGGTYYADSVKGRFTISRDNAKNTVYLQMNSLKPEDTAVYYCNAAGYARKTAYYYWGQGTQVTVSS | high polyreactivity
QVQLVESGGGLVQAGGSLRLSCAASGSTFTSYAMGWYIQAPGKERELVAAIRYRGDGTYYADSVKGRFTISRDNAKNTVYLQMNSLKPEDTAVYYCAADTTLQAFIRYRPIGSYDSWGQGTQVTVSS | low polyreactivity
QVQLVESGGGLVQAGGSLRLSCAASGSTFTSYAMGWYRQAPGKERELVASISRSGGSTYYADSVKGRFTISRDNAKNTVYLQMNSLKPEDTAVYYCAVRSVTWHGYWGQGTQVTVSS | high polyreactivity
QVQLVESGGGLVQAGGSLRLSCAASGSTFTTNAMGWYRQAPGKERELVAAISWSGTTTYYADSVKGRFTISRDNAKNTVYLQMNSLKPEDTAVYYCAAQVVSGTVAYLDFGYWGQGTQVTVSS | low polyreactivity
QVQLVESGGGLVQAGGSLRLSCAASGSTFTTNVMGWYRQAPGKERELVAAISWSSGSTYYADSVKGRFTISRDNAKNTVYLQMNSLKPEDTAVYYCAARLVIFYPYSRYYYWGQGTQVTVSS | high polyreactivity
QVQLVESGGGLVQAGGSLRLSCAASGSTFTTYAMGWYRQAPGKEREFVASIRWRGGHTYYADSVKGRFTISRDNAKNTVYLQMNSLKPEDTAVYFCARRVDYISSKYGYWGQGTQVTVSS | high polyreactivity
QVQLVESGGGLVQAGGSLRLSCAASGSTFTVNAMGLYRQAPGKERELVAAINWSGGSTYYADSVKGRFTISRDHAKNTVYLQMNSLKPEDTAVYYCNKDREPYGYWSFDYWGQGTQVTLSS | low polyreactivity
QVQLVESGGGLVQAGGSLRLSCAASGSTFTVNAMGWYRQAPGKERELVAVIRKSGTSTYYADSVKGRFSISRDNAKNTVYLQMNSLKPEDTAVYYCAAGGPSTLDDYWGQGTQVTVSS | low polyreactivity
QVQLVESGGGLVQAGGSLRLSCAASGSTFTWYAMGWYRQAPGKERELVAAISRGGSTNYADSVKGRFTISRDNAKNTVYLQMNSLKPEDTAVYYCAAESYWRDDYWGQGTQVTVSS | low polyreactivity
QVQLVESGGGLVQAGGSLRLSCAASGSTFTWYAMGWYRQAPGKERELVADISYGGGSTYYADSVKGRFTISRDNAKNTVYLQMNSLKPEDTAVYYCAADYRWYQRGNPMDYWGQGTQVNVSS | low polyreactivity
QVQLVESGGGLVQAGGSLRLSCAASGSTFTWYAMGWYRQAPGKERELVADISYGGGSTYYADSVKGRFTISRDNAKNTVYLQMNSLKPEDTAVYYCAVDDGFAYSYDWTYRYAEYYYWGQGTQVTVSS | low polyreactivity
QVQLVESGGGLVQAGGSLRLSCAASGSTFTWYTMGWYRQAPGKERELVAAISSSGGSTYYADSVKGRFTISRDNAKNTVYLQMNSLKPEDTAVYYCARRFPSPLYTRYDYWGQGTQVTVSS | high polyreactivity
QVQLVESGGGLVQAGGSLRLSCAASGSTFTYNAMGWYRQAPGKERELVASISSGTTTYYADSVKGRFTISRDNAKNTVYLQMNCLKPEDTAVYYCAVDSWSRVQGWLAHYYDYWGQGTQVTVSS | low polyreactivity
QVQLVESGGGLVQAGGSLRLSCAASGSTFTYNTMGWYRQAPGKERELVAAISWGGGGTYYADSVKGRFTISRDNAKNSVYLQMNSLKRVDTAVYYCKADPWWDYGTFDYWGQGTQVTVSS | low polyreactivity
QVQLVESGGGLVQAGGSLRLSCAASGSTFTYNTMGWYRQAPGKERELVAGITKSGGSTYYADSVKGRFTISRDTAKNTVYLQMNSLKPEDTAVYYCATSTSRRYGSRHNYWGQGTQVTVSS | high polyreactivity
QVQLVESGGGLVQAGGSLRLSCAASGSTFTYYAMGWYRQAPGKEREFVATIRRSGGRTNYADSVKGRFTISRDNAKNTVYLQMNSLKPEDTAVYYCNARYTNVRGFDYWGQGTQVTVSS | high polyreactivity
QVQLVESGGGLVQAGGSLRLSCAASGSTFTYYAMGWYRQAPGKEREFVATITYSGGSTYYADSVKGRFTISRDNAKNTVYLQMNSLKPEDTAVYYCAARVGRPSLVAAKYDYWGQGTQVTVSS | high polyreactivity
